T1: recombinant human OX40 (R&D #1493-CD) (human, UniProt P43489 29-216, limits assumed)
T1 sequence (looked up): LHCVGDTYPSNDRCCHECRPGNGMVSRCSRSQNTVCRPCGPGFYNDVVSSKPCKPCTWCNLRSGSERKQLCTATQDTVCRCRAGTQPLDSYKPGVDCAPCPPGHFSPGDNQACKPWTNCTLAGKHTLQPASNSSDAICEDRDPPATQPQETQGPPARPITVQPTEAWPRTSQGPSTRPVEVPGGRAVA


How the values were obtained:
[1] = target: Human CD137 (R&D systems) (human, UniProt Q07011 24-186, limits assumed); assay: SPR Biacore, amine-coupled CD137, mAb injected (bivalent)
Method: Human CD137 (R&D systems) was immobilized to the Biacore™ sensor chip, CMS, using conventional amine coupling. The tested antibody and control (serially diluted 1/2 10-0.63 nM) were analyzed for binding in HBS-P (GE, #BR-1003-68) at a flow rate of […]. The association was followed for 5 minutes and the dissociation for 15 minutes. Regeneration was performed twice using 10 mM Glycine pH 1.7 for 30 seconds. The kinetic parameters and the affinity constants were calculated using 1:1 Langmuir model.

[2] = target: T2, cynomolgus CD137 on transfected CHO cells (cynomolgus; human); assay: flow cytometry, CD137-transfected CHO cells
T2 construct: extracellular domain;domain: transmembrane and intracellular part; also called CHO-cyCD137; CHOcynoCD137
Method: (§1) Binding and EC50 was determined using flow cytometric analysis of CHO cells transfected with human CD137, cynomolgus CD137 or empty vector. The extracellular part of human or cynomolgus CD137 was fused to the transmembrane and intracellular part of human CD40 and cloned into pcDNA3.1. The vector was subsequently stably transfected into CHO cells. […] CD137-transfected and empty vector-transfected cells were incubated with CD137 antibodies for at least 1h at 4° C. to saturate the binding. In order to minimize antibody internalization, 0.05% sodium azide was used in the incubation buffer and all work was performed on ice. […] Directly after staining the cells were fixed with a paraformaldehyde solution (10x concentrate BD CellFIX, BD biosciences #340181). Cells were analyzed by flow cytometry using FACSVerse (BD Biosciences). The median fluorescence intensity (MFI) for each sample was determined and the dose response data was analysed using Graph Pad Prism.
(§2) MFI data was normalized for each antibody, where 0% is defined as the lowest value and 100% is the highest value in the dose titration for each antibody.

[3] = target: T3, full-length human CD137 construct 1030 (human, UniProt Q07011 24-255); assay: flow cytometry, 293-F cells with full-length CD137 (reference of the normalization)
T3 construct: whole, on cells; on transfected FreeStyle 293-F cells; also called Full-length CD137
Method: (§3) The ability of each antibody to bind to a panel of human/mouse CD137 chimeras expressed on the surface of transfected cells was analyzed by flow cytometry.
(§4) The chimeras were designed by exchanging domains or modules of the human CD137 with the corresponding mouse domain (FIG. 7). Genes of CD137 human/mouse chimeras were synthesized (GenScript) and constructs cloned into pcDNA3.1 vector (Invitrogen) and transiently transfected into FreeStyle 293-F cells (Invitrogen). The transfected cells were incubated with CD137 antibodies and control antibodies, followed by incubation with anti-human IgG-PE (Jackson Immunoresearch) for detection and analyzed with FACS Verse (BD Biosciences). Binding to the different chimeric constructs was calculated as relative MFI compared to the binding of the isotype control, followed by normalization to the full-length human CD137 construct to minimize the effect of affinity differences between individual antibodies.

[4] = target: T4, recombinant human CD137-Fc (R&D #838-4B) (human, UniProt Q07011 24-186); assay: ELISA, coated CD137-Fc
T4 construct: bought; also called CD137 (R&D #838-4B); not shown: Fc part, bought reagent, not described
Method: (§5) Binding of CD137 antibodies to recombinant human CD137 was determined by sandwich ELISA. Briefly, ELISA plates (Greiner #655074) coated with recombinant human CD137-Fc (R&D #838-4B) were incubated with serial dilutions of the various CD137 antibodies to be investigated. CD137 antibodies were detected using HRP-conjugated goat-anti-human kappa light chain (AbD Serotec #STAR127P) and developed with SuperSignal ELISA Pico Chemiluminescent substrate (Pierce #37069). EC50 values of the various antibodies were determined in 2-6 separate experiments.

[5] = target: T5, CD40-Fc (Ancell #504-820) (human, UniProt P25942 21-193); assay: ELISA, coated CD40-Fc
T5 construct: not shown: Fc part, bought reagent, not described
Method: (§6) ELISA plates (Greiner #655074) were coated with 50 μl/well of recombinant human OX40 (R&D #1493-CD), CD40-Fc (Ancell #504-820) or CD137 (R&D #838-4B) diluted to a final concentration of 0.5 μg/ml in PBS for 1h at 37° C. or overnight at 4° C. Plates were washed with PBS+0.05% TWEEN20 (PBST), followed by block with PBST+1% bovine serum albumin (BSA). Antibody samples were prepared as serial 1/10 dilutions from 10-0.01 μg/ml in PBST+1% BSA and incubated for 1 h in room temperature, followed by detection using a horse radish peroxidase-conjugated anti-human kappa light chain antibody (AbD Serotec #STAR127P) and developed using SuperSignal ELISA Pico Chemiluminescent substrate (Pierce ThermoScientific #37069).

[6] = target: T6, human CD137 on transfected CHO cells (human, UniProt Q07011 24-186; P25942 194-277, limits assumed); assay: flow cytometry, CHO-huCD137; 95% CI of EC50
T6 construct: extracellular domain;domain: transmembrane and intracellular part; also called CHO-huCD137; CHOhCD137
Method: as §1, §2

[7] = target: T2, cynomolgus CD137 on transfected CHO …; assay: flow cytometry, CHO-cyCD137; 95% CI of EC50
Method: as §1, §2

[8] = target: T4, recombinant human CD137-Fc (R&D #838-4B); assay: ELISA, coated CD137-Fc; remark: listed apart in the source
Method: as §5

[9] = target: T7, human/mouse CD137 chimera 1553; assay: flow cytometry, 293-F cells with CD137 chimera
T7 construct: on transfected FreeStyle 293-F cells
Method: as §3, §4

[10] = target: T8, human/mouse CD137 chimera 1550; assay: flow cytometry, 293-F cells with CD137 chimera
T8 construct: on transfected FreeStyle 293-F cells
Method: as §3, §4

[11] = target: T9, human/mouse CD137 chimera 1551; assay: flow cytometry, 293-F cells with CD137 chimera
T9 construct: on transfected FreeStyle 293-F cells
Method: as §3, §4

[12] = target: T10, human/mouse CD137 chimera 1555; assay: flow cytometry, 293-F cells with CD137 chimera
T10 construct: on transfected FreeStyle 293-F cells
Method: as §3, §4

[13] = target: T11, human/mouse CD137 chimera 1554; assay: flow cytometry, 293-F cells with CD137 chimera
T11 construct: on transfected FreeStyle 293-F cells
Method: as §3, §4

[14] = target: T12, human/mouse CD137 chimera 1552; assay: flow cytometry, 293-F cells with CD137 chimera
T12 construct: on transfected FreeStyle 293-F cells
Method: as §3, §4

[15] = target: T4, recombinant human CD137-Fc (R&D #838-4B); assay: ELISA, coated CD137 (R&D #838-4B)
[16] = target: T5, CD40-Fc (Ancell #504-820); assay: ELISA, coated CD40-Fc; coated CD40-Fc
Method: as §6

[17] = target: T13, biotinylated CD137 (UniProt Q07011 24-186, limits assumed, biotinylated); assay: SPR MASS-1, biotinylated antigen on streptavidin chip, parental mAb (same value as printed at r8c7, repeated in the row of 1618-1210)
[18] = target: T1, recombinant human OX40 (R&D #1493-CD); assay: ELISA, coated OX40
Method: as §6

[19] = target: T13, biotinylated CD137; assay: SPR MASS-1, biotinylated antigen on streptavidin chip, parental mAb
[20] = target: T7, human/mouse CD137 chimera 1553; assay: flow cytometry, 293-F cells with CD137 chimera; Exp 1
Method: as §3, §4

[21] = target: T8, human/mouse CD137 chimera 1550; assay: as above
Method: as §3, §4

[22] = target: T9, human/mouse CD137 chimera 1551; assay: as above
Method: as §3, §4

[23] = target: T10, human/mouse CD137 chimera 1555; assay: as above
Method: as §3, §4

[24] = target: T11, human/mouse CD137 chimera 1554; assay: as above
Method: as §3, §4

[25] = target: T12, human/mouse CD137 chimera 1552; assay: as above
Method: as §3, §4

[26] = target: T7, human/mouse CD137 chimera 1553; assay: flow cytometry, 293-F cells with CD137 chimera; Exp 2
Method: as §3, §4

[27] = target: T8, human/mouse CD137 chimera 1550; assay: as above
Method: as §3, §4

[28] = target: T9, human/mouse CD137 chimera 1551; assay: as above
Method: as §3, §4

[29] = target: T10, human/mouse CD137 chimera 1555; assay: as above
Method: as §3, §4

[30] = target: T11, human/mouse CD137 chimera 1554; assay: as above
Method: as §3, §4

[31] = target: T12, human/mouse CD137 chimera 1552; assay: as above
Method: as §3, §4

T4 sequence (Q07011 24-186 limits assumed): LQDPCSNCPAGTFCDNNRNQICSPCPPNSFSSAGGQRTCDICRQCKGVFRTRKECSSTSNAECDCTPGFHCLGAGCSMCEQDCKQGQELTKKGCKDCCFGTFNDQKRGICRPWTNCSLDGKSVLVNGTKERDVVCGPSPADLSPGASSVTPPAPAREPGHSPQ
Sequence of Human CD137 (R&D systems) (Q07011 24-186 limits assumed): as above
T5 sequence (P25942 21-193 limits assumed): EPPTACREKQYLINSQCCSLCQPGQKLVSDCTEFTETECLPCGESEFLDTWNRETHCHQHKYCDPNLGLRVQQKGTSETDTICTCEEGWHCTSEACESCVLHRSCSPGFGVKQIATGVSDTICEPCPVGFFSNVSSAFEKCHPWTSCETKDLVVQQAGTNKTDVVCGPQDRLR
T2 sequence (P25942 other isoform, or with tags, fused parts or gaps): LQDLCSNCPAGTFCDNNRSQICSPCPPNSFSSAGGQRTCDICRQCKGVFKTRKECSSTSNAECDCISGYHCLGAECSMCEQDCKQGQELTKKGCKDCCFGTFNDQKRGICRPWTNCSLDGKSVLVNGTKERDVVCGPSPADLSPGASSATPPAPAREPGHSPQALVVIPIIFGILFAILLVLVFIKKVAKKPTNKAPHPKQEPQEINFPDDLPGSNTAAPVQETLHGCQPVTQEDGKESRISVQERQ
T13 sequence (Q07011 24-186 limits assumed): as the sequence (Q07011 24-186 limits assumed) above
T3 sequence (Q07011 24-255): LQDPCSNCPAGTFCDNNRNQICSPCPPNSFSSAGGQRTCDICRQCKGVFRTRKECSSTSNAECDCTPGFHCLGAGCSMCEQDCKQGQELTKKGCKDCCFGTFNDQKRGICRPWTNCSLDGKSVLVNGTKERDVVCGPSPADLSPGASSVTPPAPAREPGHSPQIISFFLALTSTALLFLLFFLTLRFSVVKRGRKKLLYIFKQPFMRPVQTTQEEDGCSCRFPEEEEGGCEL
T6 sequence (Q07011 other isoform, or with tags, fused parts or gaps limits assumed): as the sequence (P25942 other isoform, or with tags, fused parts or gaps) above, with L4P, S19N, K50R, I66T, S67P, Y69F, E75G, A149V counted along it

Row | Kd [1] | koff [1] | kon [1] | Ratio, cyno:human [2] | MFI/isotype control normalized to full-length human CD137 [3] | EC50 [4] | EC50 [6] | EC50 [7] | MFI/isotype control normalized to full-length human CD137 [9] | MFI/isotype control normalized to full-length human CD137 [10] | MFI/isotype control normalized to full-length human CD137 [11] | MFI/isotype control normalized to full-length human CD137 [12] | MFI/isotype control normalized to full-length human CD137 [13] | MFI/isotype control normalized to full-length human CD137 [14] | binding result [18] | binding result [5] | Binder | other results
1 | 0.976 nM | 0.00066 s⁻¹ | 676000 M⁻¹ s⁻¹ | 0.67 | 1 | 0.41 nM | 0.16 to 0.27 µg/mL | 0.11 to 0.17 µg/mL | 0.65 | 0.05 | 0.05 | 0.26 | 0.51 | 0.06 |  |  | 1202/1203 (antibody, V domains shown) VH: EVQLLESGGGLVQPGGSLRLSCAASGFTFYGSSMSWVRQAPGKGLEWVSSIYYGSSGTYYADSVKGRFTISRDNSKNTLYLQMNSLRAEDTAVYYCARSYYGYFDYWGQGTLVTVSS VL: DIQMTQSPSSLSASVGDRVTITCRASQSISSYLNWYQQKPGKAPKLLIYAASSLQSGVPSRFSGSGSGTDFTLTISSLQPEDFATYYCQQYYTVVPFTFGQGTKLEIK | EC50 [5]: > 10 µg/mL; EC50 [8]: ~0.06 µg/mL; EC50 [15]: 0.4 nM; EC50 [16]: > 40 nM
2 | 0.107 nM | 0.00011 s⁻¹ | 1.02e+06 M⁻¹ s⁻¹ | 0.77 | 1 | 0.35 nM | 0.11 to 0.19 µg/mL | 0.086 to 0.15 µg/mL | 1.24 | 0.11 | 0.67 | 0.12 | 1.01 | 1.2 | no binding (tested: 10 µg/ml) | no binding (tested: 10 µg/ml) | 1618/1619 (antibody, V domains shown) VH: EVQLLESGGGLVQPGGSLRLSCAASGFTFSYGSMYWVRQAPGKGLEWVSSISSGSGSTYYADSVKGRFTISRDNSKNTLYLQMNSLRAEDTAVYYCARSSYYGSYYSIDYWGQGTLVTVSS VL: DIQMTQSPSSLSASVGDRVTITCRASQSISSYLNWYQQKPGKAPKLLIYAASSLQSGVPSRFSGSGSGTDFTLTISSLQPEDFATYYCQQYYDNLPTFGQGTKLEIK | Kd [17]: 0.156 nM; Kd [19]: 0.156 nM
3 |  |  |  |  |  |  |  |  |  |  |  |  |  |  | no binding (tested: 10 µg/ml) | no binding (tested: 10 µg/ml) | 1214/1215 (antibody, V domains shown) VH: EVQLLESGGGLVQPGGSLRLSCAASGFTFSSYAMSWVRQAPGKGLEWVSSIGSGGGYTGYADSVKGRFTISRDNSKNTLYLQMNSLRAEDTAVYYCARVGHPFDYWGQGTLVTVSS VL: DIQMTQSPSSLSASVGDRVTITCRASQSISSYLNWYQQKPGKAPKLLIYAASSLQSGVPSRFSGSGSGTDFTLTISSLQPEDFATYYCQQDAYPHTFGQGTKLEIK | MFI/isotype control normalized to full-length human CD137 [20]: 0.41; MFI/isotype control normalized to full-length human CD137 [21]: 0.06; MFI/isotype control normalized to full-length human CD137 [22]: 0.07; MFI/isotype control normalized to full-length human CD137 [23]: 0.3; MFI/isotype control normalized to full-length human CD137 [24]: 0.26; MFI/isotype control normalized to full-length human CD137 [25]: 0.32; MFI/isotype control normalized to full-length human CD137 [26]: 0.15; MFI/isotype control normalized to full-length human CD137 [27]: 0.14; MFI/isotype control normalized to full-length human CD137 [28]: 0.15; MFI/isotype control normalized to full-length human CD137 [29]: 0.45; MFI/isotype control normalized to full-length human CD137 [30]: 0.15; MFI/isotype control normalized to full-length human CD137 [31]: 0.13

Reference: patent publication US20190169308A1 (ALLIGATOR BIOSCIENCE, published 2019)
